# Reference: IntAct's records for PubMed 19632993
# B1: Chromosomal replication initiator protein DnaA (Escherichia coli (strain K12)), P03004 (parent)
# chain: MSLSLWQQCLARLQDELPATEFSMWIRPLQAELSDNTLALYAPNRFVLDWVRDKYLNNINGLLTSFCGADAPQLRFEVGTKPVTQTPQAAVTSNVAAPAQVAQTQPQRAAPSTRSGWDNVPAPAEPTYRSNVNVKHTFDNFVEGKSNQLARAAARQVADNPGGAYNPLFLYGGTGLGKTHLLHAVGNGIMARKPNAKVVYMHSERFVQDMVKALQNNAIEEFKRYYRSVDALLIDDIQFFANKERSQEEFFHTFNALLEGNQQIILTSDRYPKEINGVEDRLKSRFGWGLTVAIEPPELETRVAILMKKADENDIRLPGEVAFFIAKRLRSNVRELEGALNRVIANANFTGRAITIDFVREALRDLLALQEKLVTIDNIQKTVAEYYKIKVADLLSKRRSRSVARPRQMAMALAKELTNHSLPEIGDAFGGRDHTTVLHACRKIEQLREESHDIKEDFSNLIRTLSS
# partner: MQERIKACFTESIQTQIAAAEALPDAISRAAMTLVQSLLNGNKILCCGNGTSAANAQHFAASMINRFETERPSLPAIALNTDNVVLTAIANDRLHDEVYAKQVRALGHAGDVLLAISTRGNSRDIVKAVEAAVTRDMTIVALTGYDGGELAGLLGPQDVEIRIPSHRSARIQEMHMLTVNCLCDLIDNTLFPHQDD
# Variants of: B1
# Conditions: with diaa_ecoli diaA
row,Variant,effect of a mutation on the interaction
1,MSLSLWQQCLARLQDELPATEFSMWIRPLQAELSDNTLALYAPNRAVLDWVRDKYLNNINGLLTSFCGADAPQLRFEVGTKPVTQTPQAAVTSNVAAPAQVAQTQPQRAAPSTRSGWDNVPAPAEPTYRSNVNVKHTFDNFVEGKSNQLARAAARQVADNPGGAYNPLFLYGGTGLGKTHLLHAVGNGIMARKPNAKVVYMHSERFVQDMVKALQNNAIEEFKRYYRSVDALLIDDIQFFANKERSQEEFFHTFNALLEGNQQIILTSDRYPKEINGVEDRLKSRFGWGLTVAIEPPELETRVAILMKKADENDIRLPGEVAFFIAKRLRSNVRELEGALNRVIANANFTGRAITIDFVREALRDLLALQEKLVTIDNIQKTVAEYYKIKVADLLSKRRSRSVARPRQMAMALAKELTNHSLPEIGDAFGGRDHTTVLHACRKIEQLREESHDIKEDFSNLIRTLSS [F46A],disrupting interaction
2,MSLSLWQQCLARLQDELPATAFSMWIRPLQAELSDNTLALYAPNRFVLDWVRDKYLNNINGLLTSFCGADAPQLRFEVGTKPVTQTPQAAVTSNVAAPAQVAQTQPQRAAPSTRSGWDNVPAPAEPTYRSNVNVKHTFDNFVEGKSNQLARAAARQVADNPGGAYNPLFLYGGTGLGKTHLLHAVGNGIMARKPNAKVVYMHSERFVQDMVKALQNNAIEEFKRYYRSVDALLIDDIQFFANKERSQEEFFHTFNALLEGNQQIILTSDRYPKEINGVEDRLKSRFGWGLTVAIEPPELETRVAILMKKADENDIRLPGEVAFFIAKRLRSNVRELEGALNRVIANANFTGRAITIDFVREALRDLLALQEKLVTIDNIQKTVAEYYKIKVADLLSKRRSRSVARPRQMAMALAKELTNHSLPEIGDAFGGRDHTTVLHACRKIEQLREESHDIKEDFSNLIRTLSS [E21A],decreasing interaction
